# US20180086849A1 (Hoffmann-La Roche, published 2018)
# T1: hu-MCSP(D3 domain)-avi-his (human, UniProt Q6UVK1 1582-2224, biotinylated where used for selection or for coupling to the SA chip)
# T1 construct: also called human MCSP(D3 domain)-avi-his; human MCSP D3
# T1 sequence: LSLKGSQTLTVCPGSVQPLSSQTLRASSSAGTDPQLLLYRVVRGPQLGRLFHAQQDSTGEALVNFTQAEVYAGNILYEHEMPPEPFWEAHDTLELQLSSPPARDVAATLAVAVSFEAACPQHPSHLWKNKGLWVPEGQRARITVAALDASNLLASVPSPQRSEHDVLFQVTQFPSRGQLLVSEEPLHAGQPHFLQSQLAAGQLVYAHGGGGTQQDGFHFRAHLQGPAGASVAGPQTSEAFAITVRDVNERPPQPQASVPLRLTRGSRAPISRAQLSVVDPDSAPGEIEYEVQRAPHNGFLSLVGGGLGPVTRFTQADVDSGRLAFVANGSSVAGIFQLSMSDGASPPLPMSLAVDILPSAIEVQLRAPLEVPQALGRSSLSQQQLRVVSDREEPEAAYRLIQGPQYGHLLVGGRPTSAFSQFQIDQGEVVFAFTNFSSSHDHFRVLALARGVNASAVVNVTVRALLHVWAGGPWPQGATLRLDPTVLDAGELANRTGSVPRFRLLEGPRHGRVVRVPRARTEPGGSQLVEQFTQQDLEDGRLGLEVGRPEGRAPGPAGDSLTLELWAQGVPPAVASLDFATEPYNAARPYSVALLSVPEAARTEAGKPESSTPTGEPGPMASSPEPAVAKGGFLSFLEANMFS
# T2: cynomolgus MCSP D3 (cynomolgus, UniProt Q6UVK1 1582-2224 (human entry))
# T2 construct: also called cynomolgus homologue; not shown: C-terminal tag
# T2 chain: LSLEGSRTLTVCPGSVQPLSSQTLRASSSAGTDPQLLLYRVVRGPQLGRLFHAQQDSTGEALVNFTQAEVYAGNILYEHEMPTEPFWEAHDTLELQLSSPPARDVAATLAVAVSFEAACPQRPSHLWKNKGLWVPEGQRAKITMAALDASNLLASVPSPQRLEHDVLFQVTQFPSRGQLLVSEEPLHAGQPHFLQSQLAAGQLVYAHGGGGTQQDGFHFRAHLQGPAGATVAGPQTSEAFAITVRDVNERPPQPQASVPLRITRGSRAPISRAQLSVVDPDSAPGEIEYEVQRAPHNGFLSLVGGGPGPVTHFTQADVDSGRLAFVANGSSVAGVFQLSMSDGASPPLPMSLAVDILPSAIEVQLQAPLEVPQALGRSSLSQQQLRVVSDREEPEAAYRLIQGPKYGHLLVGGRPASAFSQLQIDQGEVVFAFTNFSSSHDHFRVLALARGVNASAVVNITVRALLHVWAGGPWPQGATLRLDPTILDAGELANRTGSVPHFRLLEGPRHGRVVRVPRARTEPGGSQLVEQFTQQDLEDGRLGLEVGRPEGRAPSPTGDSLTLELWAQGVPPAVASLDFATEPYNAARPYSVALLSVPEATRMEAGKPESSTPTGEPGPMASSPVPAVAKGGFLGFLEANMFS
# B1: M4-3(A7)/ML2(C5) (IgG) (antibody, V domains shown)
# VH: QVQLQESGPGLVKPSQTLSLTCTVSGGSITDGYYWNWIRQHPGKGLEWIGYITFDGRNNYNPSLKSRVTISRDTSKNQFSLKLSSVTAADTAVYYCADFDYWGQGTLVTVSS
# VL: DIQMTQSPSSLSASVGDRVTITCRASRGIREYLNWYQQKPGKAPKLLIYYTGSLHSGVPSRFSGSGSGTDFTLTISSLQPEDFATYYCQQYSELPWTFGQGTKVEIK
# notes: Human IgG1 format
# Columns and labels:
# [1] = target: T1, hu-MCSP(D3 domain)-avi-his; test: SPR (ProteOn XPR36), IgG captured, antigen as analyte
# Procedure: Briefly, carboxymethylated dextran biosensor chips (CM5, GE Healthcare) were activated with N-ethyl-N′-(3-dimethylaminopropyl)-carbodiimide hydrochloride (EDC) and N-hydroxysuccinimide (NHS) according to the supplier's instructions. Anti-human F(ab′)2 fragment specific capture antibody was diluted with 10 mM sodium acetate, pH 5.0 at 50 μg/ml before injection at a flow rate of 10 μl/minute to achieve approximately up to 10.000 response units (RU) of coupled capture antibody. Following the injection of the capture antibody, 1 M ethanolamine was injected to block unreacted groups. For kinetics measurements, Fabs from bacterial supernatant or purified Fabs are injected at a flow rate of 10 ul/minute for 300 s and a dissociation of 300 s for capture baseline stabilization. […] Association rates (kon) and dissociation rates (koff) were calculated using a simple one-to-one Langmuir binding model (ProteOn XPR36 Evaluation Software or Scrubber software (BioLogic)) by simultaneously fitting the association and dissociation sensorgrams. The equilibrium dissociation constant (KD) was calculated as the ratio koff/kon. […]
# In the IgG format affinities were measured again to the human MCSP antigen (SEQ ID NO. 390), in addition also to the cynomolgus homologue (SEQ ID NO. 389). […]
# cynomolgus MCSP D3 = target: T2, cynomolgus MCSP D3; test: SPR (ProteOn XPR36), IgG KD against parental M4-3/ML2
# Procedure: (§1) Briefly, carboxymethylated dextran biosensor chips (CM5, GE Healthcare) were activated with N-ethyl-N′-(3-dimethylaminopropyl)-carbodiimide hydrochloride (EDC) and N-hydroxysuccinimide (NHS) according to the supplier's instructions. Anti-human F(ab′)2 fragment specific capture antibody was diluted with 10 mM sodium acetate, pH 5.0 at 50 μg/ml before injection at a flow rate of 10 μl/minute to achieve approximately up to 10.000 response units (RU) of coupled capture antibody. Following the injection of the capture antibody, 1 M ethanolamine was injected to block unreacted groups. For kinetics measurements, Fabs from bacterial supernatant or purified Fabs are injected at a flow rate of 10 ul/minute for 300 s and a dissociation of 300 s for capture baseline stabilization. […] The surface of the sensorchip was regenerated by injection of glycine pH 1.5 for 30 s at 90 ul/min followed by injection of NaOH for 20 s at the same flow rate. Association rates (kon) and dissociation rates (koff) were calculated using a simple one-to-one Langmuir binding model (ProteOn XPR36 Evaluation Software or Scrubber software (BioLogic)) by simultaneously fitting the association and dissociation sensorgrams. The equilibrium dissociation constant (KD) was calculated as the ratio koff/kon. […] Since CDR1 and 2 of the light chain were randomized independent from CDR3, the obtained CDRs were combined during IgG conversion.
# (§2) In the IgG format affinities were measured again to the human MCSP antigen (SEQ ID NO. 390), in addition also to the cynomolgus homologue (SEQ ID NO. 389). Method exactly as described for the Fab fragments, just purified IgG from mammalian production were used.
# [2] = target: T1, hu-MCSP(D3 domain)-avi-his; test: as above
# Procedure: as §1, §2
binder,measurement,setting,value
B1,Kd,[1],0.07 nM
same,Comparative binding affinity - Fold increase over parent,cynomolgus MCSP D3,10 fold
same,Comparative binding affinity - Fold increase over parent,[2],28.6 fold
